Results taken from paper PMC8322138, “BRCA2 binding through a cryptic repeated motif to HSF2BP oligomers does not impact meiotic recombination” (Nature Communications, 2021).

Tested on: BRCA2 (Flag-F9)
Assay: Co-immunoprecipitation of GFP-HSF2BP variants with Flag-BRCA2 F9
Assay type: cell-based, human
Conditions: transient HEK293T / stable HeLa, anti-GFP beads, immunoblot
Text: Expression constructs for producing point mutation and truncation variants of HS2BP and BRCA2 in human cells were engineered as described before[16] in the PiggyBac vectors by Gibson assembly. For transient expression into HEK293T cells plasmid DNA was transfected using calcium precipitation method or PEI transfection. For stable integration into HeLa cells, PiggyBac expression vectors were co-lipofected together with PiggyBac transposase plasmid (hyPBase[45]) with Lipofectamine 3000 (Thermo Fisher).
Cells were washed twice in ice-cold PBS and lysed in situ in NETT buffer (100 mM NaCl, 50 mM Tris pH 7.5, 5 mM EDTA pH 8.0, 0.5% Triton-X100) supplemented immediately before use with protease inhibitor cocktail (Roche) and 0.4 mg/ml Pefabloc (Roche) (NETT++); 450 µl NETT++ buffer was used per 145 mm dish ES cells, 1 ml for HeLa and HEK293T. After 5–10 min, cells were scraped off and collected in 1.5 ml microcentrifuge tubes; lysis was continued for additional 20–30 min on ice, then mixtures were centrifuged (15 min, 4 °C, 14,000 × g) and the supernatant (input) was added to washed anti-GFP beads (Chromotek). Beads and lysates were incubated 2–4 h at 4 °C while rotating, washed three times in NETT++ buffer and bound proteins were eluted by boiling in 2x Sample buffer. Immunoblotting was performed following standard procedures with the following antibodies: anti-GFP mAb (Roche, #11814460001), anti-GFP pAb (Abcam #ab290 and Invitrogen #A11122), anti-RAD51[46], anti-BRCA2 mAb Ab1 OP-95 (Millipore #OP95), anti-BRCA2 (Abcam #27976), anti-Flag (M2 antibody, Sigma, F3165 and F1804). For quantitative immunoblotting fluorescently labeled secondary antibodies were used: anti-mouse CF680 (Sigma #SAB460199), anti-rabbit CF770 (Sigma #SAB460215); membranes were scanned using Odyssey CLx imaging system (LI-COR).

Molecule	binding to BRCA2 (co-precipitation)	other results
N243H: GFP-HSF2BP point mutant (protein, left off: GFP, end not stated, kept, GFP-HSF2BP point mutant) MGEAGAAEEACRHMGTKEEFVKVRKKDLERLTTEVMQIRDFLPRILNGEVLESFQKLKIVEKNLERKEQELEQLKMDCEHFKARLETVQADNIREKKEKLALRQQLNEAKQQLLQQAEYCTEMGAAACTLLWGVSSSEEVVKAILGGDKALKFFSITGQTMESFVKSLDGDVQELDSDESQFVFALAGIVTNVAAIACGREFLVNSSRVLLDTILQLLGDLKPGQCTKLKVLMLMSLYNVSIHLKGLKYISESPGFIPLLWWLLSDPDAEVCLHVLRLVQSVVLEPEVFSKSASEFRSSLPLQRILAMSKSRNPRLQTAAQELLEDLRTLEHNV	totally abolished binding	binding to BRCA2 (co-precipitation) (listed as N243): failed to co-precipitate
N192R: GFP-HSF2BP point mutant (protein, left off: GFP, end not stated, kept, GFP-HSF2BP point mutant) MGEAGAAEEACRHMGTKEEFVKVRKKDLERLTTEVMQIRDFLPRILNGEVLESFQKLKIVEKNLERKEQELEQLKMDCEHFKARLETVQADNIREKKEKLALRQQLNEAKQQLLQQAEYCTEMGAAACTLLWGVSSSEEVVKAILGGDKALKFFSITGQTMESFVKSLDGDVQELDSDESQFVFALAGIVTRVAAIACGREFLVNSSRVLLDTILQLLGDLKPGQCTKLKVLMLMSLYNVSINLKGLKYISESPGFIPLLWWLLSDPDAEVCLHVLRLVQSVVLEPEVFSKSASEFRSSLPLQRILAMSKSRNPRLQTAAQELLEDLRTLEHNV	totally abolished binding	binding to BRCA2 (co-precipitation) (listed as N192): failed to co-precipitate
K245T: GFP-HSF2BP point mutant (protein, left off: GFP, end not stated, kept, GFP-HSF2BP point mutant) MGEAGAAEEACRHMGTKEEFVKVRKKDLERLTTEVMQIRDFLPRILNGEVLESFQKLKIVEKNLERKEQELEQLKMDCEHFKARLETVQADNIREKKEKLALRQQLNEAKQQLLQQAEYCTEMGAAACTLLWGVSSSEEVVKAILGGDKALKFFSITGQTMESFVKSLDGDVQELDSDESQFVFALAGIVTNVAAIACGREFLVNSSRVLLDTILQLLGDLKPGQCTKLKVLMLMSLYNVSINLTGLKYISESPGFIPLLWWLLSDPDAEVCLHVLRLVQSVVLEPEVFSKSASEFRSSLPLQRILAMSKSRNPRLQTAAQELLEDLRTLEHNV	did not impact BRCA2 binding	binding to BRCA2 (co-precipitation) (listed as K245): do not decrease binding
M235T: GFP-HSF2BP point mutant (protein, left off: GFP, end not stated, kept, GFP-HSF2BP point mutant) MGEAGAAEEACRHMGTKEEFVKVRKKDLERLTTEVMQIRDFLPRILNGEVLESFQKLKIVEKNLERKEQELEQLKMDCEHFKARLETVQADNIREKKEKLALRQQLNEAKQQLLQQAEYCTEMGAAACTLLWGVSSSEEVVKAILGGDKALKFFSITGQTMESFVKSLDGDVQELDSDESQFVFALAGIVTNVAAIACGREFLVNSSRVLLDTILQLLGDLKPGQCTKLKVLMLTSLYNVSINLKGLKYISESPGFIPLLWWLLSDPDAEVCLHVLRLVQSVVLEPEVFSKSASEFRSSLPLQRILAMSKSRNPRLQTAAQELLEDLRTLEHNV	still weakly bound to BRCA2	–
Y238A: GFP-HSF2BP point mutant (protein, left off: GFP, end not stated, kept, GFP-HSF2BP point mutant) MGEAGAAEEACRHMGTKEEFVKVRKKDLERLTTEVMQIRDFLPRILNGEVLESFQKLKIVEKNLERKEQELEQLKMDCEHFKARLETVQADNIREKKEKLALRQQLNEAKQQLLQQAEYCTEMGAAACTLLWGVSSSEEVVKAILGGDKALKFFSITGQTMESFVKSLDGDVQELDSDESQFVFALAGIVTNVAAIACGREFLVNSSRVLLDTILQLLGDLKPGQCTKLKVLMLMSLANVSINLKGLKYISESPGFIPLLWWLLSDPDAEVCLHVLRLVQSVVLEPEVFSKSASEFRSSLPLQRILAMSKSRNPRLQTAAQELLEDLRTLEHNV	totally abolished binding	binding to BRCA2 (co-precipitation) (listed as Y238): failed to co-precipitate
E201A: GFP-HSF2BP point mutant (protein, left off: GFP, end not stated, kept, GFP-HSF2BP point mutant) MGEAGAAEEACRHMGTKEEFVKVRKKDLERLTTEVMQIRDFLPRILNGEVLESFQKLKIVEKNLERKEQELEQLKMDCEHFKARLETVQADNIREKKEKLALRQQLNEAKQQLLQQAEYCTEMGAAACTLLWGVSSSEEVVKAILGGDKALKFFSITGQTMESFVKSLDGDVQELDSDESQFVFALAGIVTNVAAIACGRAFLVNSSRVLLDTILQLLGDLKPGQCTKLKVLMLMSLYNVSINLKGLKYISESPGFIPLLWWLLSDPDAEVCLHVLRLVQSVVLEPEVFSKSASEFRSSLPLQRILAMSKSRNPRLQTAAQELLEDLRTLEHNV	did not impact BRCA2 binding	binding to BRCA2 (co-precipitation) (listed as E201): do not decrease binding
N239K: GFP-HSF2BP point mutant (protein, left off: GFP, end not stated, kept, GFP-HSF2BP point mutant) MGEAGAAEEACRHMGTKEEFVKVRKKDLERLTTEVMQIRDFLPRILNGEVLESFQKLKIVEKNLERKEQELEQLKMDCEHFKARLETVQADNIREKKEKLALRQQLNEAKQQLLQQAEYCTEMGAAACTLLWGVSSSEEVVKAILGGDKALKFFSITGQTMESFVKSLDGDVQELDSDESQFVFALAGIVTNVAAIACGREFLVNSSRVLLDTILQLLGDLKPGQCTKLKVLMLMSLYKVSINLKGLKYISESPGFIPLLWWLLSDPDAEVCLHVLRLVQSVVLEPEVFSKSASEFRSSLPLQRILAMSKSRNPRLQTAAQELLEDLRTLEHNV	totally abolished binding	binding to BRCA2 (co-precipitation) (listed as N239): failed to co-precipitate
R200E: GFP-HSF2BP point mutant (protein, left off: GFP, end not stated, kept, GFP-HSF2BP point mutant) MGEAGAAEEACRHMGTKEEFVKVRKKDLERLTTEVMQIRDFLPRILNGEVLESFQKLKIVEKNLERKEQELEQLKMDCEHFKARLETVQADNIREKKEKLALRQQLNEAKQQLLQQAEYCTEMGAAACTLLWGVSSSEEVVKAILGGDKALKFFSITGQTMESFVKSLDGDVQELDSDESQFVFALAGIVTNVAAIACGEEFLVNSSRVLLDTILQLLGDLKPGQCTKLKVLMLMSLYNVSINLKGLKYISESPGFIPLLWWLLSDPDAEVCLHVLRLVQSVVLEPEVFSKSASEFRSSLPLQRILAMSKSRNPRLQTAAQELLEDLRTLEHNV	totally abolished binding	–
G199D: GFP-HSF2BP point mutant (protein, left off: GFP, end not stated, kept, GFP-HSF2BP point mutant) MGEAGAAEEACRHMGTKEEFVKVRKKDLERLTTEVMQIRDFLPRILNGEVLESFQKLKIVEKNLERKEQELEQLKMDCEHFKARLETVQADNIREKKEKLALRQQLNEAKQQLLQQAEYCTEMGAAACTLLWGVSSSEEVVKAILGGDKALKFFSITGQTMESFVKSLDGDVQELDSDESQFVFALAGIVTNVAAIACDREFLVNSSRVLLDTILQLLGDLKPGQCTKLKVLMLMSLYNVSINLKGLKYISESPGFIPLLWWLLSDPDAEVCLHVLRLVQSVVLEPEVFSKSASEFRSSLPLQRILAMSKSRNPRLQTAAQELLEDLRTLEHNV	abolished binding	binding to BRCA2 (co-precipitation) (listed as G199): failed to co-precipitate
